Reference: the supplement of paper PMC10126150
± gives the standard deviation of the averaged measurements.

Tested on: ATP
Assay: switch fluorescence ratio, 500 uM ATP over buffer (Cy3 cluster intensity, sum of 5 cycles each) (fold (ratio)); higher = stronger signal-on switching upon ATP binding; sequences stand for … in TCGTCGGCAGCGTCAGATGTGTATAAGAGACAGTTTTTTTTTTTTTTTTTTTTTTTTT…TC
Settings: aptamer strand: ATP DNA aptamer (quencher-CACCTGGGGGAGTATTGCGGAGGAAGG + anchor), 100 nM annealed; ATP concentration: 500 uM
Method in brief: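 Imaging in selection buffer was followed by imaging after 15 min with 500 uM ATP at 22 °C, for Cy3-labelled switching-strand clusters annealed to 100 nM quencher-labelled ATP aptamer on a modified Illumina MiSeq flow-cell. Five of these buffer/ATP cycles ran, separated by NaOH stripping and re-annealing. The fluorescence ratio per cluster is summed target-cycle over summed buffer-cycle Cy3 intensity, averaged per switch-domain sequence; clusters outside 100-1000 RFU were removed.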
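Further: ATP exposure 15 min at 22 °C before imaging.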

| Sequence | switch fluorescence ratio |
| --- | --- |
| GGTTTATGAC | 1.13 ± 0.27 |
| GGTTTCATGG | 0.998 ± 0.012 |
| GGTTTCGTTT | 1.002 ± 0.0063 |
| GGTTTGAAAA | 1.01 ± 0.032 |
| GGTTTGCGCT | 1.004 ± 0.0076 |
| GGTTTGGGAG | 1 ± 0.036 |
| GGTTTGGGGG | 0.997 ± 0.023 |
| GGTTTGGTAA | 1.014 ± 0.0099 |
| GGTTTGTGTT | 0.974 ± 0.017 |
| GGTTTTAAGT | 1.01 ± 0.04 |
| GGTTTTGATG | 0.98 ± 0.039 |
| GGTTTTGGCG | 1 ± 0.061 |
| GGTTTTGGGG | 1.01 ± 0.026 |
| GGTTTTGTAG | 0.999 ± 0.012 |
| GGTTTTGTTG | 1.01 ± 0.0013 |
| GGTTTTTAGA | 1 ± 0.013 |
| GGTTTTTTAC | 1 ± 0.062 |
| GGTTTTTTTC | 1.02 ± 0.048 |
| GTAAAAAAAG | 1.09 ± 0.086 |
| GTAAAAATTT | 1.06 ± 0.11 |
| GTAAAAGGGG | 0.996 ± 0.042 |
| GTAAAGCCTG | 0.968 ± 0.032 |
| GTAACCAATT | 1.01 ± 0.021 |
| GTAAGAGGGG | 1.02 ± 0.03 |
| GTAAGATGAA | 1.01 ± 0.018 |

| Sequence | switch fluorescence ratio |
| --- | --- |
| GTAAGATTGA | 0.986 ± 0.015 |
| GTAAGGAGTA | 0.96199 ± 0.0002 |
| GTAAGGGATA | 0.988 ± 0.031 |
| GTAAGGGGAT | 0.988 ± 0.016 |
| GTAAGGGGCA | 1.07 ± 0.047 |
| GTAAGGGGTC | 1 ± 0.028 |
| GTAAGTAGGA | 1 ± 0.037 |
| GTAAGTTGGT | 1 ± 0.021 |
| GTAAGTTTTT | 0.984 ± 0.02 |
| GTAATAAAAT | 0.971 ± 0.034 |
| GTAATAAGCG | 1.007 ± 0.00016 |
| GTAATACGTG | 1.14 ± 0.041 |
| GTAATACTTG | 1.079 ± 0.01 |
| GTAATAGGTT | 0.956 ± 0.057 |
| GTAATAGTTG | 1.01 ± 0.022 |
| GTAATATTAT | 0.974 ± 0.032 |
| GTAATCATCG | 0.9847 ± 0.0073 |
| GTAATCTCAG | 0.997 ± 0.022 |
| GTAATGCTTG | 1.012 ± 0.01 |
| GTAATGGAAT | 0.9912 ± 0.0078 |
| GTAATGTGGT | 0.967 ± 0.024 |
| GTAATTAAGG | 0.996 ± 0.029 |
| GTAATTCAGA | 0.99 ± 0.037 |
| GTAATTGGGC | 0.964 ± 0.061 |
| GTAATTGTAA | 0.984 ± 0.012 |

| Sequence | switch fluorescence ratio |
| --- | --- |
| GTAATTTGCA | 0.9986 ± 0.0055 |
| GTACCATTTT | 0.9968 ± 0.0067 |
| GTACCGGGCA | 1.02 ± 0.026 |
| GTACGAGGGA | 0.997 ± 0.026 |
| GTACGAGTGC | 0.976 ± 0.019 |
| GTACGTAGGC | 1.03 ± 0.06 |
| GTACTGCCTG | 1 ± 0.024 |
| GTACTTCTGT | 0.96 ± 0.014 |
| GTAGAAAAAG | 1.99 ± 1.4 |
| GTAGAAGGGA | 1.01 ± 0.025 |
| GTAGAAGGGG | 1 ± 0.021 |
| GTAGACGGGT | 1.03 ± 0.031 |
| GTAGAGAGTG | 1 ± 0.02 |
| GTAGAGCGGG | 0.9889 ± 0.0042 |
| GTAGGACTGC | 1.01 ± 0.021 |
| GTAGGAGCCG | 0.9987 ± 0.0097 |
| GTAGGAGGGA | 1.05 ± 0.1 |
| GTAGGGCGCG | 1.021 ± 0.0035 |
| GTAGGGGCTG | 1 ± 0.074 |
| GTAGGGGTCA | 0.976 ± 0.054 |
| GTAGTAATTG | 1.075 ± 0.0065 |
| GTAGTCTTAG | 0.9943 ± 0.0097 |
| GTAGTGACGT | 0.975 ± 0.044 |
| GTAGTTCATG | 0.96 ± 0.018 |
| GTATAAGCCT | 1.05 ± 0.041 |

| Sequence | switch fluorescence ratio |
| --- | --- |
| GTATAGGGTT | 0.9931 ± 0.007 |
| GTATATCCGG | 0.975 ± 0.013 |
| GTATCAGGGC | 1.04 ± 0.033 |
| GTATCTTACT | 1.007 ± 0.0018 |
| GTATGAAATG | 0.999 ± 0.022 |
| GTATGAGGCG | 0.981 ± 0.04 |
| GTATGAGGGA | 0.993 ± 0.018 |
| GTATGATGTG | 0.9915 ± 0.008 |
| GTATGCGAAG | 1.03 ± 0.053 |
| GTATGCGCAA | 2.74 ± 0.06 |
| GTATGCGTGT | 1.04 ± 0.034 |
| GTATGCTAAC | 1 ± 0.043 |
| GTATGCTTGG | 0.9959 ± 0.0042 |
| GTATGGGGGA | 1.01 ± 0.031 |
| GTATGTTGCG | 0.96532 ± 0.00026 |
| GTATTATTTA | 1 ± 0.022 |
| GTATTGAAGT | 0.98469 ± 0.00015 |
| GTATTGCTTT | 0.963 ± 0.012 |
| GTATTGTCAG | 0.9663 ± 0.00064 |
| GTATTGTTTT | 1.14 ± 0.16 |
| GTATTTCGGC | 0.994 ± 0.027 |
| GTATTTGGGA | 0.991 ± 0.054 |
| GTATTTTATT | 1.006 ± 0.0064 |
| GTATTTTGGG | 0.996 ± 0.014 |
| GTATTTTTGG | 0.972 ± 0.03 |
